Consider 2 molecules from article PMC4952014 (2015).

The chains are these.
B2: Siglec-1 (recombinant protein used for SPR) (receptor)
chain: SWGVSSPQDVQGVKGSCLLIPCIFSFPADVEVPDGITAIWYYDYSGQRQVVSHSADPKLVEARFRGRTEFMGNPEHRVCNLLLKDLQPEDSGSYNFRFEISEVNRWSDVKGTLVTVTEEPRVPTIASPVELLEGTEVDFNCSTPYVCLQEQVRLQWQGQDPARSVTFNSQKFEPTGVGHLETLHMAMSWQDHGRILRCQLSVANHRAQSEIHLQVKYAPKGVKILLSPSGRNILPGELVTLTCQVNSSYPAVSSIKWLKDGVRLQTKTGVLHLPQAAWSDAGVYTCQAENGVGSLVSPPISLHIFMAEVQVSPAGPILENQTVTLVCNTPNEAPSDLRYSWYKNHVLLEDAHSHTLRLHLATRADTGFYFCEVQNVHGSERSGPVSVVVNHPPLTPVLTAFLETQAGLVGILHCSVVSEPLATLVLSHGGHILASTSGDSDHSPRFSGTSGPNSLRLEIRDLEETDSGEYKCSATNSLGNATSTLDFHANAARLLISPAAEVVEGQAVTLSCRSGLSPTPDARFSWYLNGALLHEGPGSSLLLPAASSTDAGSYHCRARDGHSASGPSSPAVLTVLYPPRQPTFTTRLDLDAAGAGAGRRGLLLCRVDSDPPARLQLLHKDRVVATSLPSGGGCSTCGGCSPRMKVTKAPNLLRVEIHNPLLEEEGLYLCEASNALGNASTSATFNGQATVLAIAPSHTLQEGTEANLTCNVSREAAGSPANFSWFRNGVLWAQGPLETVTLLPVARTDAALYACRILTEAGAQLSTPVLLSVLYPPDRPKLSALLDMGQGHMALFICTVDSRPLALLALFHGEHLLATSLGPQVPSHGRFQAKAEANSLKLEVRELGLGDSGSYRCEATNVLGSSNTSLFFQVRGAWVQVSPSPELQEGQAVVLSCQVHTGVPEGTSYRWYRDGQPLQESTSATLRFAAITLTQAGAYHCQAQAPGSATTSLAAPISLHVSYAPRHVTLTTLMDTGPGRLGLLLCRVDSDPPAQLRLLHGDRLVASTLQGVGGPEGSSPRLHVAVAPNTLRLEIHGAMLEDEGVYICEASNTLGQASASADFDAQAVNVQVWPGATVREGQLVNLTCLVWTTHPAQLTYTWYQDGQQRLDAHSIPLPNVTVRDATSYRCGVGPPGRAPRLSRPITLDVLYAPRNLRLTYLLESHGGQLALVLCTVDSRPPAQLALSHAGRLLASSTAASVPNTLRLELRGPQPRDEGFYSCSARSPLGQANTSLELRLEGVRVILAPEAAVPEGAPITVTCADPAAHAPTLYTWYHNGRWLQEGPAASLSFLVATRAHAGAYSCQAQDAQGTRSSRPAALQVLYAPQDAVLSSFRDSRARSMAVIQCTVDSEPPAELALSHDGKVLATSSGVHSLASGTGHVQVARNALRLQVQDVPAGDDTYVCTAQNLLGSISTIGRLQVEGARVVAEPGLDVPEGAALNLSCRLLGGPGPVGNSTFAWFWNDRRLHAEPVPTLAFTHVARAQAGMYHCLAELPTGAAASAPVMLRVLYPPKTPTMMVFVEPEGGLRGILDCRVDSEPLASLTLHLGSRLVASSQPQGAPAEPHIHVLASPNALRVDIEALRPSDQGEYICSASNVLGSASTSTYFGVRALHRLHQFQQLLWVLGLLVGLLLLLLGLGACYTWRRRRVCKQSMGENSVEMAFQKETTQLIDPDAATCETSTCAPPLG

For experiment [1], the target named is B2. Nature of the experiment: SPR; immobilized Siglec-1. In general terms: In SPR one partner is held on a chip, and binding of the other changes the refractive index at the surface.
In experiment [2] the target is T1, JR-FL FD trimeric gp145 (HIV-1 JR-FL | bacteriophage T4). Put plainly: SPR; immobilized JR-FL gp145.
The next experiment concerns the target Soc-V1V2SF162 (CHO-S) (bacteriophage T4 | HIV-1 SF162). Nature of the experiment: SPR; immobilized Siglec-1.
Experiment [3] has as its target T1, JR-FL FD trimeric gp145. Nature of the experiment: SPR; immobilized Siglec-1.
Experiment [4] concerns the target T2, SF162 FD trimeric gp145 (HIV-1 SF162 | bacteriophage T4, UniProt P19551). Put plainly: SPR; immobilized SF162 gp145.
Experiment [5] addresses T2, SF162 FD trimeric gp145. Put plainly: SPR; immobilized Siglec-1.
For another experiment, the target named is Soc-V1V2JR-FL (293F) (bacteriophage T4 | HIV-1 JR-FL). Put plainly: SPR; immobilized Siglec-1.

B1: JR-FL monomeric gp120 (natural protein)
chain: not shown
modifications: N-glycosylated and sialylated (293F-expressed). Limits are not printed: start is the candidate's CHAIN start at 32, end is the residue before gp41 at 503. A vector-derived N-terminus from the CD5 leader, and a C-terminus affected by the cleavage-site change, are possible but not stated.
The Kd is the concentration at which binding is half-saturated. As for B1, the Kd in experiment [1] was 4.13 nM.

Take B2: the Kd with JR-FL FD trimeric gp145 [2] came to 2.9 nM; in the experiment with Soc-V1V2SF162 (CHO-S) it was 1.96 nM; with JR-FL FD trimeric gp145 [3] it was 0.28 nM; with SF162 FD trimeric gp145 [4], 8.26 nM; with SF162 FD trimeric gp145 [5] it was 0.441 nM; with Soc-V1V2JR-FL (293F) it was 4.34 nM.
